B4: B55 (subunit of the PP2A:B55 holoenzyme) (natural protein, UniProt P63151 1-447, looked up)
chain: MAGAGGGNDIQWCFSQVKGAVDDDVAEADIISTVEFNHSGELLATGDKGGRVVIFQQEQENKIQSHSRGEYNVYSTFQSHEPEFDYLKSLEIEEKINKIRWLPQKNAAQFLLSTNDKTIKLWKISERDKRPEGYNLKEEDGRYRDPTTVTTLRVPVFRPMDLMVEASPRRIFANAHTYHINSISINSDYETYLSADDLRINLWHLEITDRSFNIVDIKPANMEELTEVITAAEFHPNSCNTFVYSSSKGTIRLCDMRASALCDRHSKLFEEPEDPSNRSFFSEIISSISDVKFSHSGRYMMTRDYLSVKIWDLNMENRPVETYQVHEYLRSKLCSLYENDCIFDKFECCWNGSDSVVMTGSYNNFFRMFDRNTKRDITLEASRENNKPRTVLKPRKVCASGKRKKDEISVDSLDFNKKILHTAWHPKENIIAVATTNNLYIFQDKVN
notes: B55 regulatory subunit, printed as full-length B55 1–477; The B55 chain of m1, written alone for the contacts seen in the cryo-EM structures; also called B55WT; source: Expi293F, purified as part of PP2A:B55; not shown: GFP, N-terminal, cleaved
B6: tpS62tpS104ARPP19 (ARPP19 thiophosphorylated by MASTL on Ser62 and Ser104) (natural protein, UniProt P56211 1-112, looked up)
chain: MSAEVPEAASAEEQKEMEDKVTSPEKAEEAKLKARYPHLGQKPGGSDFLRKRLQKGQKYFDSGDYNMAKAKMKNKQLPTAAPDKTEVTGDHIPTPQDLPQRKPSLVASKLAG
modifications: thiophosphoserine at 62 and 104

Experiments:
[1] = target: PP2A:B55 holoenzyme (PP2Aa, B55, PP2Ac) (UniProt P30153 9-589; P63151 1-447; P67775 1-309, C-terminal residue fully methylated (mLeu309)); test: cell-based or functional assay
Chain of PP2A:B55 holoenzyme (PP2Aa, B55, PP2Ac) (P30153 9-589, chain 1 of 2): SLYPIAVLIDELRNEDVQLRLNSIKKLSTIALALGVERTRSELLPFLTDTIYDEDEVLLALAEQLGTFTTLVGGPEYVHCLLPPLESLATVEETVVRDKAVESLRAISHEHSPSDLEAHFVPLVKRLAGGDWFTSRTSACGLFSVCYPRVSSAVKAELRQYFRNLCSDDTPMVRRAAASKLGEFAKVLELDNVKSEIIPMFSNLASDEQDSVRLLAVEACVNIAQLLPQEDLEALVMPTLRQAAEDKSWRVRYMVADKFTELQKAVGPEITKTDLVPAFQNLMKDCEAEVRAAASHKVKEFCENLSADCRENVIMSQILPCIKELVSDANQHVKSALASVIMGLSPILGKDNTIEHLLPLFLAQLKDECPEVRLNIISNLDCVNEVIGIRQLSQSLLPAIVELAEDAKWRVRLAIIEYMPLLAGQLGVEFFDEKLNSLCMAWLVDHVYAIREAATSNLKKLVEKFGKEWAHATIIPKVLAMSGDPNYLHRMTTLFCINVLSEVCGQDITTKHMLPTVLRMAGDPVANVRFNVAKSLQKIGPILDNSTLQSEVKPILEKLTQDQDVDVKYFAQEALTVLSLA
Chain of PP2A:B55 holoenzyme (PP2Aa, B55, PP2Ac) (P67775 whole entry, chain 3 of 2): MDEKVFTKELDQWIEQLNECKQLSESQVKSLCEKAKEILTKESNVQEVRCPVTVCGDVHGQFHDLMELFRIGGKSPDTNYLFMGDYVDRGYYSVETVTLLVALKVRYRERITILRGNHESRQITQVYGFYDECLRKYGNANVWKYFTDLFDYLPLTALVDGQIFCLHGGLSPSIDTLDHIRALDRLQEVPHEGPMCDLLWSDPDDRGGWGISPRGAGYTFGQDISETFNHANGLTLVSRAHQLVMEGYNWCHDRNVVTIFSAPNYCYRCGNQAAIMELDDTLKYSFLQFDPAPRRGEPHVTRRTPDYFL

[2] = target: T1, ARPP19(S10C) labelled with Alexa Fluor 488 (ARPP19-tracer) (UniProt P56211 1-112, S10C, Alexa Fluor 488 C5 Maleimide label); test: fluorescence polarisation; PP2A:B55 (or B55LL) serially diluted into 0.1 nM Alexa Fluor 488 tracer (FAM122AID-tracer or ARPP19-tracer); 10 mM HEPES pH 7.0, 150 mM NaCl, 0.5 mM TCEP, 0.01% Triton X-100, 0.1 mg/ml BSA; 30 min at room temperature; conditions: both partners purified
T1 construct: ARPP19, S10C; source: E. coli BL21 (DE3), purified; labelled, recovered by analytical SEC; not shown: His6, N-terminal, cleaved; MBP, N-terminal, cleaved
T1 sequence (looked up): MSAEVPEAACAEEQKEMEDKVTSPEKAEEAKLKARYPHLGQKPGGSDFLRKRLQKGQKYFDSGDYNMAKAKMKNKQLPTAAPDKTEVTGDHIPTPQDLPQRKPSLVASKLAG

[3] = target: T2, cAMP regulated phosphoprotein 19 (ARPP19), unphosphorylated (UniProt P56211 1-112); test: NMR titration; 2D 1H,15N HSQC of 15N-labelled FAM122A or ARPP19 (2–6 μM) with an excess of unlabelled PP2A:B55 or B55LL; peak intensity loss; 283 K; NMR buffer pH 6.3, 150 mM NaCl; conditions: both partners purified
T2 construct: 15N-labelled in the NMR experiments; source: E. coli BL21 (DE3), purified (HisTrap, TEV cleavage, Ni-NTA, heat, SEC); not shown: His6, N-terminal, cleaved; MBP, N-terminal, cleaved
T2 sequence (looked up): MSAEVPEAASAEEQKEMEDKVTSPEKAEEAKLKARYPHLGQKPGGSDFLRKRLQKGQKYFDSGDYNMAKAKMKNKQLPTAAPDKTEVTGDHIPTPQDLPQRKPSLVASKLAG

[4] = target: B6; test: as above; conditions: both partners purified
[5] = target: T3, PP2Aa_(9–589) (scaffolding subunit of the PP2A:B55 holoenzyme) (UniProt P30153 9-589); test: cryo-EM structure; purified PP2A:B55 incubated with FAM122AID or tpARPP19 at a 1.5 molar ratio; CHAPSO added before vitrification; conditions: both partners purified
T3 construct: PP2Aa (PP2A scaffolding A subunit), residues 9-589; The PP2Aa chain of m1, written alone for the contacts seen in the cryo-EM structures; source: E. coli BL21 (DE3), purified (HisTrap, TEV cleavage, Ni-NTA, QTrap, SEC); not shown: His6, N-terminal, cleaved; MBP, N-terminal, cleaved
T3 sequence (P30153 9-589): as the sequence (P30153 9-589, chain 1 of 2) above

YFP–ARPP19 F48A = target: T4, YFP–ARPP19 F48A (UniProt P56211 1-112, F48A); test: co-IP; YFP–ARPP19 variants transiently transfected into HeLa cells, precipitated with GFP-Trap beads at 4 °C in 50 mM Tris-HCl pH 7.5, 50 mM NaCl, 1 mM EDTA, 1 mM DTT, 0.1% NP40; western blot for B55α and PP2Ac; conditions: partners not purified
T4 construct: ARPP19; source: HeLa, transiently transfected, in lysate
T4 sequence (looked up): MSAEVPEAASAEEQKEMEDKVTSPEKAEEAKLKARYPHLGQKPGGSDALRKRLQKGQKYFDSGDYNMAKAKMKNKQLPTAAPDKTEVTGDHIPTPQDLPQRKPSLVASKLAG

YFP–ARPP19 R50A = target: T5, YFP–ARPP19 R50A (UniProt P56211 1-112, R50A); test: as above; conditions: partners not purified
T5 construct: ARPP19; source: HeLa, transiently transfected, in lysate
T5 sequence (looked up): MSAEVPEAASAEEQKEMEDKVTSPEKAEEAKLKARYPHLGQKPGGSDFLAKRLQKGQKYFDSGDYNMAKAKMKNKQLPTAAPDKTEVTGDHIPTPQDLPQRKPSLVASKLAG

YFP–ARPP19 L53A = target: T6, YFP–ARPP19 L53A (UniProt P56211 1-112, L53A); test: as above; conditions: partners not purified
T6 construct: ARPP19; source: HeLa, transiently transfected, in lysate
T6 sequence (looked up): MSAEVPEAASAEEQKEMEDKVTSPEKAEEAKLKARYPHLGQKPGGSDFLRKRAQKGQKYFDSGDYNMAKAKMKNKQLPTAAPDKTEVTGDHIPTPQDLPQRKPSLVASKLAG

YFP–ARPP19 R52A = target: T7, YFP–ARPP19 R52A (UniProt P56211 1-112, R52A); test: as above; conditions: partners not purified
T7 construct: ARPP19; source: HeLa, transiently transfected, in lysate
T7 sequence (looked up): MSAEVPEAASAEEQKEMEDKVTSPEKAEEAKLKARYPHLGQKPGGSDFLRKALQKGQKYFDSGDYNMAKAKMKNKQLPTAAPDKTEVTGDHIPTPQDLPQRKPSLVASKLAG

YFP–ARPP19 L49A = target: T8, YFP–ARPP19 L49A (UniProt P56211 1-112, L49A); test: as above; conditions: partners not purified
T8 construct: ARPP19; source: HeLa, transiently transfected, in lysate
T8 sequence (looked up): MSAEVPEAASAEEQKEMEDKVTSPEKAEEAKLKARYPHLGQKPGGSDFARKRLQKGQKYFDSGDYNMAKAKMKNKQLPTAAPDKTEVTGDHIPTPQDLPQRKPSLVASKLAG

YFP–ARPP19 K55A = target: T9, YFP–ARPP19 K55A (UniProt P56211 1-112, K55A); test: as above; conditions: partners not purified
T9 construct: ARPP19; source: HeLa, transiently transfected, in lysate
T9 sequence (looked up): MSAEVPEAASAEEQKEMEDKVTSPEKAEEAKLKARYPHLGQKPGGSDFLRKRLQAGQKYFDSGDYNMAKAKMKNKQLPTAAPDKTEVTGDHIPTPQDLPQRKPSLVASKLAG

[6] = target: B4; test: cryo-EM structure; purified PP2A:B55 incubated with FAM122AID or tpARPP19 at a 1.5 molar ratio; CHAPSO added before vitrification; conditions: both partners purified

B1: FAM122AID I88A/K89A/S120C (domain or fragment, UniProt Q96E09 29-120, looked up)
chain: GGGLRRSNSAPLIHGLSDTSPVFQAEAPSARRNSTTFPSRHGLLLPASPVRMHSSRLHQAAQEEGMDLINRETVHEREVQTAMQISHSWEEC
modifications: Alexa Fluor 488 C5 Maleimide label (fluorescence polarization assay)
- IC50 of PP2A:B55 inhibition (DiFMUP), fold increase against wild type [1]: 48 fold

B2: FAM122AID R84A/L85A/S120C (domain or fragment, UniProt Q96E09 29-120, looked up)
chain: GGGLRRSNSAPLIHGLSDTSPVFQAEAPSARRNSTTFPSRHGLLLPASPVRMHSSAAHQIKQEEGMDLINRETVHEREVQTAMQISHSWEEC
modifications: Alexa Fluor 488 C5 Maleimide label (fluorescence polarization assay)
- IC50 of PP2A:B55 inhibition (DiFMUP), fold increase against wild type [1]: 38 fold

B3: B55 loopless (B55LL) (domain or fragment)
chain: MAGAGGGNDIQWCFSQVKGAVDDDVAEADIISTVEFNHSGELLATGDKGGRVVIFQQEQENKIQSHSRGEYNVYSTFQSHEPEFDYLKSLEIEEKINKIRWLPQKNAAQFLLSTNDKTIKLWKISNGEASPRRIFANAHTYHINSISINSDYETYLSADDLRINLWHLEITDRSFNIVDIKPANMEELTEVITAAEFHPNSCNTFVYSSSKGTIRLCDMRASALCDRHSKLFEEPEDPSNRSFFSEIISSISDVKFSHSGRYMMTRDYLSVKIWDLNMENRPVETYQVHEYLRSKLCSLYENDCIFDKFECCWNGSDSVVMTGSYNNFFRMFDRNTKRDITLEASRENNKPRTVLKPRKVCASGKRKKDEISVDSLDFNKKILHTAWHPKENIIAVATTNNLYIFQDKVN
notes: linker that replaces B55 residues 126–164; source: Expi293F, purified (GFP-nanobody beads, TEV on-column cleavage, QTrap, SEC); not shown: GFP, N-terminal, cleaved
- binding result [2]: binds
- binding result [3]: binds
- binding result [4]: binds

Binder: B4
- binding result [5]: binds

B5: B55, endogenous in HeLa cells (natural protein, human (endogenous in HeLa), UniProt P63151 1-447, looked up)
chain: MAGAGGGNDIQWCFSQVKGAVDDDVAEADIISTVEFNHSGELLATGDKGGRVVIFQQEQENKIQSHSRGEYNVYSTFQSHEPEFDYLKSLEIEEKINKIRWLPQKNAAQFLLSTNDKTIKLWKISERDKRPEGYNLKEEDGRYRDPTTVTTLRVPVFRPMDLMVEASPRRIFANAHTYHINSISINSDYETYLSADDLRINLWHLEITDRSFNIVDIKPANMEELTEVITAAEFHPNSCNTFVYSSSKGTIRLCDMRASALCDRHSKLFEEPEDPSNRSFFSEIISSISDVKFSHSGRYMMTRDYLSVKIWDLNMENRPVETYQVHEYLRSKLCSLYENDCIFDKFECCWNGSDSVVMTGSYNNFFRMFDRNTKRDITLEASRENNKPRTVLKPRKVCASGKRKKDEISVDSLDFNKKILHTAWHPKENIIAVATTNNLYIFQDKVN
notes: B55 detected with an antibody to B55α; also called B55α; source: endogenous, HeLa lysate
- binding, percent of wild type (YFP–ARPP19 F48A): ~50%
- binding, percent of wild type (YFP–ARPP19 R50A): ~50%
- binding, percent of wild type (YFP–ARPP19 L53A): < 25%
- binding, percent of wild type (YFP–ARPP19 R52A): < 25%
- binding, percent of wild type (YFP–ARPP19 L49A): ~75%
- binding, percent of wild type (YFP–ARPP19 K55A): ~75%

Binder: B6
- potency of PP2A:B55 inhibition (DiFMUP) against that of FAM122A [1]: ~250 fold

B7: tpS62ARPP19_(S104A) (singly thiophosphorylated ARPP19) (natural protein, UniProt P56211 1-112, looked up)
chain: MSAEVPEAASAEEQKEMEDKVTSPEKAEEAKLKARYPHLGQKPGGSDFLRKRLQKGQKYFDSGDYNMAKAKMKNKQLPTAAPDKTEVTGDHIPTPQDLPQRKPALVASKLAG
modifications: thiophosphoserine at 62
notes: also called tpARPP19; S62 tpARPP19_(S104A); source: E. coli BL21 (DE3), purified; thiophosphorylated with MASTL kinase and ATP-γ-S; not shown: His6, N-terminal, cleaved; MBP, N-terminal, cleaved
- binding result [6]: binds
